Laboratory results reported in patent US12357965B2, “Supramolecular filamentous assemblies for protein purification” (The Johns Hopkins University, priority 2017, dated 2025).
Values joined by “and” are separate entries in the source; they are usually repeats but may differ in a detail not shown here. Equal entries are not always repeated. Where no end group is shown, it is not given here. The star is where a group is joined. Palmitoyl = CCCCCCCCCCCCCCCC(=O)*; Octanoyl = CCCCCCCC(=O)*; C12H21O = C12 acyl

Assays:
[1] = Circular dichroism (CD) spectroscopy of peptide secondary structure; type: physicochemical; details: 100 μM in water at pH 7.4
[2] = Critical micelle concentration (CMC) measurement with Nile Red; type: physicochemical; details: deionized water
Procedure: CMC Measurement. […] The stock solution of Nile Red was initially prepared by dissolving the dye in acetone at 50 μM. 10 μL stock solution was loaded into several centrifuge tubes, where the solvent evaporates under room temperature to yield the dry mass of Nile Red. Various concentrations of the peptide solutions were prepared in deionized water, and then identical volume was added into the centrifuge tubes containing dry Nile Red and aged overnight. Fluorescent spectra of Nile Red were then monitored by a Fluorolog fluorometer (Jobin Yvon, Edison, NJ) with fixed excitation wavelength at 560 nm; emission spectra were monitored 580-720 nm. The CMC of IAs is determined by a blue-shift of the emission maximum, whereas this transition occurs as the incubated peptides exceed their CMC values.
To deeply understand the differences between single-chain and double-chain alkylated IAs with fragmented antibody binding peptides, further studies on CMC and secondary structures were conducted. The critical micelle concentration (CMC) values for various IAs were measured using Nile Red, a lipophilic dye that fluoresces depending on solvent polarity. Intensive fluorescence upon exposure to hydrophobic environments can be strongly quenched and red-shifted in aqueous media. When incubated with IAs at different concentrations in aqueous solution, Nile Red prefers to partition into the hydrophobic core offered by the self-assembled nanostructures and the CMC of IAs was determined when a blue-shift of the emission maximum occurred. […] Similarly, CMC values for C16-Helix2, Helix1-2C8, and 2C8-Helix2 can be obtained from FIG. 8B-8D.

[3] = TEM imaging of self-assembled nanostructures (diameter); type: physicochemical; details: water; for diameter of nanofibers / nanobelts (TEM): pH 7.4, aged overnight; for diameter of smallest filaments (TEM): pH 7.4, double-chain alkylated IAs
Procedure: Self-Assembly of Immuno-Amphiphiles and TEM Imaging Immuno-amphiphiles with 1 mM concentration were pretreated with HFIP and then dissolved in 1×PBS or deionized water and aged overnight at room temperature; 10 μL of 10 fold diluted sample was spotted on a carbon film copper grid with 400 square mesh (from EMS: Electron Microscopy Sciences) and the excess was removed with filter paper to leave a thin film of sample on the grid. After letting the sample dry for 5 minutes, 10 μL of 2% uranyl acetate was added to sample grid, and the excess was removed after 30 seconds. All samples were dried for at least 3 hours before TEM imaging.

[4] = molecular target: IgG (Homo sapiens, UniProt P01857); assay: IgG binding and precipitation by co-assembled immunofibers with 1 M ammonium sulfate (ProA column quantification); details: mixed with IgG, 10:1 binding molecule to IgG
Procedure: To investigate the IgG binding and precipitation ability with the new immunofibers binding system, 100 μl of desired immunofibers solution was incubated with IgG (with a 10:1 molar ratio of C12-VVKKGG(SEQ ID NO: 9) -Z33 and IgG) for half an hour followed by adding ammonium sulfate to a final concentration of 1 M to trigger the precipitation of the immunofibers and IgG. […] After centrifuging down the precipitates and analyzing the IgG concentration in the supernatant, about 30% IgG were precipitated out from the solution. IgG concentration was quantified with a ProA column (TSKgel® Protein A-5PW, 20 μm, 35×4.6 mm) monitored at 280 nm.
To increase the IgG binding efficiency and optimal precipitation condition in the co-assembled immunofibers binding system, several factors will continue to be optimized including the ratio of binding molecules to spacer molecules, the ratio of binding molecules to IgG, salt concentration, binding and salting time, and so on. The molar ratio of C12-VVEE (SEQ ID NO: 10) and C12-VVKKGG(SEQ ID NO: 9) -Z33 and the molar ratio of C12-VVKKGG(SEQ ID NO: 9) -Z33 were firstly studied and preliminary results were shown in FIG. 21. At a 10:2 molar ratio of C12VVKKGG(SEQ ID NO: 9) -Z33 to IgG and 1 M ammonium sulfate, 5 molar ratios of C12-VVEE (SEQ ID NO: 10) to C12-VVKKGG(SEQ ID NO: 9) -Z33 (5:1, 10:1, 25:1, 50:1, 100:1) were tested. […]

[5] = Thioflavin T (ThT) spectroscopic assay for β-sheet; type: physicochemical; details: 100 μM in deionized water
Procedure: Thioflavin T (ThT) Spectroscopic Assay. A ThT stock solution was prepared in deionized water at 50 μM. […] The fluorescence intensity was then measured by a Fluorolog fluorometer (Jobin Yvon, Edison, NJ) with excitation at 440 nm (slit width 5 nm) and emission at 482 nm (slit width 10 nm).
To further confirm the component of secondary structures in the self-assembled IAs, a fluorescent dye Thioflavin-T (ThT) with large enhancement of its fluorescence emission upon binding to β-sheet surfaces was used to examine the existence of β-sheet secondary structures in Helix1-based IAs.

IgG, sequence (P01857 1-330 isoform P01857-1): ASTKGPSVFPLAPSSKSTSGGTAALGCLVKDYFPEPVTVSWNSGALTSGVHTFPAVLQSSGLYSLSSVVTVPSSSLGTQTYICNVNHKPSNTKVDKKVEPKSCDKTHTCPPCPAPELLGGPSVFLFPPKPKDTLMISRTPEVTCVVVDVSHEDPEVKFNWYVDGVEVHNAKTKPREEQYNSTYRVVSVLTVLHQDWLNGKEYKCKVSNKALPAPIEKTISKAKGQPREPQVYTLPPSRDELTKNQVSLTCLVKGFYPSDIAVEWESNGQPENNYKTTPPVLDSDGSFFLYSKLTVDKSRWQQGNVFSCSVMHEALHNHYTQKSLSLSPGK

Row | Substance | Main Secondary Structure (100 μM) [1] | CMC [2] [µM] | diameter of nanofibers / nanobelts (TEM) [3] | diameter of smallest filaments (TEM) [3] [nm] | precipitation after addition of ammonium sulfate (observation) [4] | ThT fluorescence emission at 482 nm compared with pure ThT solution [5]
1 | (C8H15O)2-KPNLNEEQRNAKIKSIRDD (SEQ ID NO: 7) (not fully specified (residue 1, N-terminus); printed as (C8H15O)2-KPNLNEEQRNAKIKSIRDD; also: two octanoyl chains (C8H15O)2 at N-terminal Lys, places not given here) [2C8-Helix2] | α-helix | 5 to 10 | 22.9±1.5 nm | 9.3±1.3 | – | –
2 | C8H15O- PNLNEEQRNAKIKSIRDD (SEQ ID NO: 5) (Octanoyl-PNLNEEQRNAKIKSIRDD) [C8-Helix2] | Random coil | >100 | – | – | – | –
3 | C12-VVKKGG (SEQ ID NO: 9) -Z33: binding molecule: C12 alkyl tail at N-terminus, VVKKGG spacer between the carbon chain and binding peptide Z33 | – | – | – | – | no precipitation was observed | –
4 | C12H21O- PNLNEEQRNAKIKSIRDD (SEQ ID NO: 5) (C12H21O-PNLNEEQRNAKIKSIRDD) [C12-Helix2] | α-helix | 2 to 5 | – | – | – | –
5 | C16H31O- PNLNEEQRNAKIKSIRDD (SEQ ID NO: 5) (Palmitoyl-PNLNEEQRNAKIKSIRDD) [C16-Helix2] | β-sheet | 0.5 to 1 | 12.4±1.7 nm | – | – | –
6 | FNMQQQRRFYEALHD [Helix1] | random coil | – | – | – | – | –
7 | FNMQQQRRFYEALHDK (SEQ ID NO: 3)-C8H15O (not fully specified (residue 16); also: C-terminal C8 acyl (C8H15O), attachment not given here) [Helix1-C8] | Random coil | >100 | – | – | – | –
8 | FNMQQQRRFYEALHDK(SEQ ID NO: 3)-C12H21O (FNMQQQRRFYEALHDK(C12H21O); not fully specified) [Helix1-C12] | β-sheet | 5 to 10 | 12.2±1.4 nm and 12.9±0.9 nm | – | – | –
9 | FNMQQQRRFYEALHDK(SEQ ID NO: 3)-C16H31O (not fully specified (residue 16); also: C-terminal C16 acyl (C16H31O), attachment not given here) [Helix1-C16] | β-sheet | 0.5 to 1 | 9.6±1.3 nm and 9.5±1.2 nm | – | – | dramatic increase of fluorescence
10 | FNMQQQRRFYEALHDKK(SEQ ID NO: 4)-(C8H15O)2 (not fully specified (residues 16, 17); also: two C-terminal octanoyl chains (C8H15O)2, places not given here) [Helix1-2C8] | α-helix | 10 to 20 | 10-70 nm | 11.0±1.4 | – | –
11 | PNLNEEQRNAKIKSIRDD [Helix2] | random coil | – | – | – | – | –
